Measurements as given in PMC3406077 (2012).
Substitutions are numbered along the chain they refer to. Names and notes keep the numbering of the source.

B1: wild-type full-length (C24-P237) pallilysin, O83732 H198A (protein)
chain: CFQHGHVPPRRIPPHDTFGALPTAALPSNARDTAAHPSDTADNTSGSSTTTDPRSHGNAPPAPVGGAAQTHTQPPVQTAMRIALWNRATHGEQGALQHLLAGLWIQTEISPNSGDIHPLLFFDREHAEITFSRASVQEIFLVDSAHTHRKTVSFLTRNTAISSIRRRLEVTFESAEVIHVRAVEDVARLKIGSTSMWDGQYTRYHAGPASAPSP
B2: wild-type full-length (C24-P237) pallilysin, O83732 H202A (protein)
chain: B1 chain with A175H, H179A
B3: wild-type full-length (C24-P237) pallilysin, O83732 E199A (protein)
chain: B1 chain with A175H, E176A

Target: laminin isolated from Engelbreth-Holm-Swarm murine sarcoma basement membrane
Assay: ELISA
Conditions: chain shown with the change; 20 µg protein per well; laminin 0.5 µg per well; parent: est. 3.1; read off a plot

Binder | response (O.D. (492 nm))
B1 | 3.1
B2 | 3
B3 | 3.3
